Source: patent publication US20240035012A1
Where two headings read alike, the source gives them in different places.

Experiments:
[1] = target: prefusion stabilized trimeric SARS-CoV-2 spike protein ectodomain (SARS-CoV-2) (UniProt P0DTC2)
[2] = target: prefusion stabilized trimeric SARS-CoV-2 spike protein ectodomain (SARS-CoV-2) (UniProt P0DTC2); remark: listed apart in the source
[3] = target: prefusion stabilized trimeric SARS-CoV-2 spike protein ectodomain (SARS-CoV-2) (UniProt P0DTC2); remark: listed apart in the source
[4] = target: prefusion stabilized trimeric SARS-CoV-2 spike protein ectodomain (SARS-CoV-2) (UniProt P0DTC2); experiment: ELISA, S-ECD coated on plate, ACE2 protein titrated, anti-GFP detection
[5] = target: prefusion stabilized trimeric SARS-CoV-2 spike protein ectodomain (SARS-CoV-2) (UniProt P0DTC2); remark: listed apart in the source

Row | Substance | Kd [1] [nM] | Kd [2] [nM] | IC50 [3] [nM] | IC50 [4] [nM] | IC50 [5] [nM]
1 | ACE2-flexible-3HB (from UniProt Q9BYF1 18-615) (receptor) | 4.4 | 1.31 | 0.06 | – | –
2 | ACE2-flexible-foldon (from UniProt Q9BYF1 18-615) (receptor) | 0.34 | 0.52 | 0.07 | – | –
3 | ACE2-rigid-3HB (from UniProt Q9BYF1 18-615) (receptor) | – | < 0.001 | – | 0.03 | –
4 | ACE2-rigid-foldon (from UniProt Q9BYF1 18-615) (receptor) | – | < 0.001 | – | 0.03 | –
5 | ACE2-short-foldon (from UniProt Q9BYF1 18-615) (receptor) | – | 0.53 | – | – | 0.05
6 | Monomeric ACE2 (ACE2 (18-615)-(GGGGS)5-HRV3C-eGFP-His8) (from UniProt Q9BYF1 18-615) (receptor) | 34 | – | 26.6 | 27 | –
